Results from the supplement of paper PMC9112550, “Optimization of the antimicrobial peptide Bac7 by deep mutational scanning” (BMC Biology, 2022).

System: Escherichia coli TOP10
Experiment: shrunken log2 fold change of peptide-encoding DNA abundance (4.5 h post-induction vs induction); higher = less antimicrobial activity (less host growth inhibition)
Settings: time post-induction: 4.5 h; library: site-saturation at positions 5, 18, 19, 20
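Further: peptides expressed intracellularly from a pBAD plasmid library in pooled LB shake-flask culture, induced with 0.3% L-arabinose, DNA abundance read by NGS, three biological replicates, DESeq2 with apeglm shrinkage.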

Sequence | shrunken log2 fold change
RRIRWRPPRLPRPRPRPAMPPRP | 0.446
RRIRKRPPRLPRPRPRPPPLPRP | 0.661
RRIRGRPPRLPRPRPRPDPFPRP | 0.302
RRIRSRPPRLPRPRPRPQLCPRP | 0.0696
RRIRHRPPRLPRPRPRPNHNPRP | -0.954
RRIRDRPPRLPRPRPRPFQWPRP | -0.156
RRIRQRPPRLPRPRPRPRIRPRP | 0.024
RRIRNRPPRLPRPRPRPISLPRP | -0.0292
RRIRKRPPRLPRPRPRPFKEPRP | -0.0549
RRIRARPPRLPRPRPRPPGDPRP | 0.868
RRIRARPPRLPRPRPRPEYTPRP | -0.0194
RRIRWRPPRLPRPRPRPCLEPRP | 0.012
RRIRYRPPRLPRPRPRPRVWPRP | 1.85
RRIRRRPPRLPRPRPRPEMEPRP | 0.0355
RRIRYRPPRLPRPRPRPWRCPRP | 2.33
RRIRCRPPRLPRPRPRPWMMPRP | -0.0394
RRIRRRPPRLPRPRPRPIERPRP | 0.0771
RRIRARPPRLPRPRPRPEKTPRP | 0.38
RRIRTRPPRLPRPRPRPCGEPRP | -0.23
RRIRTRPPRLPRPRPRPHLLPRP | -0.411
RRIRHRPPRLPRPRPRPHWIPRP | -0.415
RRIRIRPPRLPRPRPRPICAPRP | 0.0269
RRIRDRPPRLPRPRPRPGGAPRP | 0.806
RRIRERPPRLPRPRPRPNNCPRP | -0.24
RRIRPRPPRLPRPRPRPRVEPRP | 0.625

Sequence | shrunken log2 fold change
RRIRWRPPRLPRPRPRPRPTPRP | 0.547
RRIRYRPPRLPRPRPRPKVYPRP | -1.13
RRIRMRPPRLPRPRPRPSVGPRP | 0.357
RRIRARPPRLPRPRPRPTASPRP | 0.74
RRIRIRPPRLPRPRPRPWQKPRP | 0.0223
RRIRRRPPRLPRPRPRPTLSPRP | -0.0436
RRIRVRPPRLPRPRPRPTPDPRP | 0.182
RRIRWRPPRLPRPRPRPKACPRP | 0.105
RRIRRRPPRLPRPRPRPYENPRP | -0.374
RRIRSRPPRLPRPRPRPDPWPRP | 0.0152
RRIRDRPPRLPRPRPRPRNSPRP | -0.394
RRIRVRPPRLPRPRPRPCMNPRP | -0.31
RRIRERPPRLPRPRPRPWSVPRP | -0.113
RRIRIRPPRLPRPRPRPGWIPRP | -0.14
RRIRFRPPRLPRPRPRPYSEPRP | -0.297
RRIRARPPRLPRPRPRPNCEPRP | 0.186
RRIRDRPPRLPRPRPRPHDVPRP | -0.00973
RRIRQRPPRLPRPRPRPYLSPRP | 0.00493
RRIRIRPPRLPRPRPRPFFQPRP | -0.412
RRIRMRPPRLPRPRPRPQQLPRP | -0.0103
RRIRGRPPRLPRPRPRPQTKPRP | 0.8
RRIRFRPPRLPRPRPRPQQLPRP | -0.437
RRIRGRPPRLPRPRPRPLNHPRP | 0.0752
RRIRPRPPRLPRPRPRPCGQPRP | 0.311
RRIRPRPPRLPRPRPRPETGPRP | -0.0114

Sequence | shrunken log2 fold change
RRIRYRPPRLPRPRPRPYPYPRP | -0.0257
RRIRPRPPRLPRPRPRPGIDPRP | -0.0536
RRIRCRPPRLPRPRPRPFVWPRP | 0.0706
RRIRSRPPRLPRPRPRPGMCPRP | 0.0439
RRIRYRPPRLPRPRPRPKLNPRP | -0.689
RRIRMRPPRLPRPRPRPIVIPRP | -0.0284
RRIRRRPPRLPRPRPRPMCEPRP | 0.516
RRIRLRPPRLPRPRPRPCYCPRP | -0.219
RRIRDRPPRLPRPRPRPGWGPRP | 0.687
RRIRMRPPRLPRPRPRPAMDPRP | 1.27
RRIRRRPPRLPRPRPRPQFHPRP | -0.133
RRIRMRPPRLPRPRPRPEYWPRP | 0.339
RRIRDRPPRLPRPRPRPLTNPRP | -0.19
RRIRWRPPRLPRPRPRPNVLPRP | -0.0626
RRIRYRPPRLPRPRPRPGNCPRP | -0.152
RRIRDRPPRLPRPRPRPVCNPRP | 0.861
RRIRYRPPRLPRPRPRPFVRPRP | 0.00599
RRIRQRPPRLPRPRPRPAVGPRP | 0.0738
RRIRTRPPRLPRPRPRPVHKPRP | -0.285
RRIRGRPPRLPRPRPRPKQTPRP | 0.175
RRIRERPPRLPRPRPRPGKKPRP | -0.0022
RRIRKRPPRLPRPRPRPDPSPRP | -0.0338
RRIRDRPPRLPRPRPRPECYPRP | -0.00335
RRIRPRPPRLPRPRPRPEYQPRP | 0.288
RRIRQRPPRLPRPRPRPVWDPRP | -0.104

Sequence | shrunken log2 fold change
RRIRSRPPRLPRPRPRPKWYPRP | -0.336
RRIRPRPPRLPRPRPRPGAYPRP | 0.0679
RRIRARPPRLPRPRPRPNCAPRP | 0.567
RRIRDRPPRLPRPRPRPVGPPRP | -0.286
RRIRTRPPRLPRPRPRPFSCPRP | -0.0158
RRIRTRPPRLPRPRPRPTHTPRP | 0.0425
RRIRCRPPRLPRPRPRPNNWPRP | -0.362
RRIRMRPPRLPRPRPRPFMAPRP | -0.236
RRIRGRPPRLPRPRPRPLHPPRP | 0.697
RRIRYRPPRLPRPRPRPARYPRP | -0.000578
RRIRRRPPRLPRPRPRPVCHPRP | -0.0349
RRIRCRPPRLPRPRPRPLLYPRP | -0.572
RRIRMRPPRLPRPRPRPFEWPRP | 0.174
RRIRERPPRLPRPRPRPIKVPRP | -0.0179
RRIRNRPPRLPRPRPRPKTNPRP | 0.0551
RRIRYRPPRLPRPRPRPHNEPRP | -0.675
RRIRNRPPRLPRPRPRPKQAPRP | -0.00865
RRIRMRPPRLPRPRPRPMWAPRP | 0.392
RRIRHRPPRLPRPRPRPQHLPRP | -0.358
RRIRRRPPRLPRPRPRPHTKPRP | 0.179
RRIRPRPPRLPRPRPRPCMSPRP | -0.0701
RRIRTRPPRLPRPRPRPPCYPRP | -0.139
RRIRGRPPRLPRPRPRPTLYPRP | 0.598
RRIRWRPPRLPRPRPRPFMMPRP | -0.587
RRIRERPPRLPRPRPRPSNKPRP | -0.811

Sequence | shrunken log2 fold change
RRIRARPPRLPRPRPRPYKGPRP | -0.144
RRIRTRPPRLPRPRPRPDGYPRP | -0.0637
RRIRKRPPRLPRPRPRPYQHPRP | -0.0857
RRIRKRPPRLPRPRPRPKDKPRP | 0.388
RRIRLRPPRLPRPRPRPLTLPRP | 0.134
RRIRGRPPRLPRPRPRPFVPPRP | 0.0587
RRIRRRPPRLPRPRPRPRAKPRP | 0.203
RRIRIRPPRLPRPRPRPSHWPRP | -0.0355
RRIRVRPPRLPRPRPRPESDPRP | 0.0889
RRIRRRPPRLPRPRPRPEECPRP | 0.00164
RRIRCRPPRLPRPRPRPAVDPRP | 0.449
RRIRKRPPRLPRPRPRPEMYPRP | 0.214
RRIRFRPPRLPRPRPRPGKQPRP | 0.0463
RRIRVRPPRLPRPRPRPERNPRP | -0.323
RRIRVRPPRLPRPRPRPIKRPRP | 0.048
RRIRNRPPRLPRPRPRPYCGPRP | -0.352
RRIRTRPPRLPRPRPRPAHGPRP | 0.00693
RRIRLRPPRLPRPRPRPKHVPRP | -0.0799
RRIRLRPPRLPRPRPRPRWRPRP | 0.463
RRIRCRPPRLPRPRPRPQLDPRP | -0.142
RRIRIRPPRLPRPRPRPFVPPRP | -0.722
RRIRDRPPRLPRPRPRPIGKPRP | -0.153
RRIRDRPPRLPRPRPRPYNLPRP | -0.0574
RRIRTRPPRLPRPRPRPIRPPRP | 0.122
RRIRCRPPRLPRPRPRPSPPPRP | 0.252

Sequence | shrunken log2 fold change
RRIRGRPPRLPRPRPRPKYHPRP | 0.00515
RRIRKRPPRLPRPRPRPRKIPRP | 0.968
RRIRGRPPRLPRPRPRPRRWPRP | 0.841
RRIRARPPRLPRPRPRPMNRPRP | -0.107
RRIRYRPPRLPRPRPRPDPVPRP | -0.0502
RRIRPRPPRLPRPRPRPCFVPRP | -0.18
RRIRIRPPRLPRPRPRPGHCPRP | -0.247
RRIRHRPPRLPRPRPRPDNNPRP | -0.453
RRIRVRPPRLPRPRPRPVTSPRP | -0.558
RRIRKRPPRLPRPRPRPNPVPRP | 0.0163
RRIRTRPPRLPRPRPRPCAIPRP | 0.00368
RRIRQRPPRLPRPRPRPPDMPRP | -0.14
RRIRNRPPRLPRPRPRPYFNPRP | -1.51
RRIRSRPPRLPRPRPRPMSNPRP | 0.129
RRIRVRPPRLPRPRPRPASCPRP | -0.0873
RRIRRRPPRLPRPRPRPKISPRP | 0.14
RRIRDRPPRLPRPRPRPDGSPRP | 0.0891
RRIRVRPPRLPRPRPRPTKVPRP | -0.341
RRIRSRPPRLPRPRPRPVNIPRP | -0.261
RRIRARPPRLPRPRPRPMLFPRP | 0.674
RRIRDRPPRLPRPRPRPCLQPRP | -0.0105
RRIRPRPPRLPRPRPRPEDMPRP | -0.927
RRIRCRPPRLPRPRPRPFEIPRP | -0.341
RRIRWRPPRLPRPRPRPGPQPRP | 0.938
RRIRLRPPRLPRPRPRPVTFPRP | -0.0737
